Cpm of bound 125I-bTSH (TSH receptor present, heat-treated normal pooled IgG), cpm of bound 125I-bTSH (TSH receptor present, normal pooled IgG) and cpm of bound 125I-bTSH, T B (Bo) data for one substance are collected here from PMC4532127.

This assay deals with TSH receptor (solubilized porcine thyroid membrane) (porcine (endogenous in thyroid membrane)) (UniProt Q8SPP9). As to the kind of experiment: radioligand binding.
Sequence of UniProt Q8SPP9 (Q8SPP9 22-764): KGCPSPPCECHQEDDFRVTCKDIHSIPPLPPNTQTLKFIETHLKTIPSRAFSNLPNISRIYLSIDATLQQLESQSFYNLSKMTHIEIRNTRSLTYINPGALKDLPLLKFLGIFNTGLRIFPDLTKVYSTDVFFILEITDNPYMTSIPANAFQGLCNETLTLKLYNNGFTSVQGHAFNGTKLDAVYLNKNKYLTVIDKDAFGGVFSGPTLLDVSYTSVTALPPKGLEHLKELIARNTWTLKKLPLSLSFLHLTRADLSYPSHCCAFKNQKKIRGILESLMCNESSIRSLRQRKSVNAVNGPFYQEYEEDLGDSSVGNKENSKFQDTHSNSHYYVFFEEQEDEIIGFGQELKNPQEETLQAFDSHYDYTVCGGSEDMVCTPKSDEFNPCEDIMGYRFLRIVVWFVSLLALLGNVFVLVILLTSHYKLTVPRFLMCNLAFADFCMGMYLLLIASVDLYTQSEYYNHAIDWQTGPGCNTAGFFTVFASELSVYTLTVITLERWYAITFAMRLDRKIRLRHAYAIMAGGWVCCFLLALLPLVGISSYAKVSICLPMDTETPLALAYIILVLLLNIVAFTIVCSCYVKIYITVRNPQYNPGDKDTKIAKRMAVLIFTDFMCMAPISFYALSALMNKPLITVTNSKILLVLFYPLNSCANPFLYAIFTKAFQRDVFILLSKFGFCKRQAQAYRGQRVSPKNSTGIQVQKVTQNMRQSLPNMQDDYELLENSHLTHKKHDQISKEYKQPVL

As to “125I-labelled bTSH (bovine thyroid-stimulating hormone) (from UniProt P01217 25-120; P01223 21-132) (ligand)”, the cpm of bound 125I-bTSH (TSH receptor present, heat-treated normal pooled IgG) is 6950 cpm; the cpm of bound 125I-bTSH (TSH receptor present, normal pooled IgG) came to 7810 cpm; the cpm of bound 125I-bTSH, T B (Bo) was found to be 7000 cpm.
